Assays:
[1] = tested on: feline IL-31; assay: Inhibition of feline IL-31 induced pSTAT3 signaling in canine DH-82 cells; format: cell-based; conditions: feline IL-31, pSTAT3, canine DH82 cells (FIG. 3)
In short: (§1)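 DH-82 cells primed with canine IFN-γ 10 ng/mL for 24 h, FCWF4 with feline IFN-γ 125 ng/mL for 96 h, then serum-starved 2 h. mAb pre-incubated 1 h with 1 μg/mL canine or 0.2 μg/mL feline IL-31, cells stimulated 5 min; pSTAT3 by AlphaLISA SureFire, IC50 as half-maximal signalling reduction.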
Target sequence in this assay (as listed by the source): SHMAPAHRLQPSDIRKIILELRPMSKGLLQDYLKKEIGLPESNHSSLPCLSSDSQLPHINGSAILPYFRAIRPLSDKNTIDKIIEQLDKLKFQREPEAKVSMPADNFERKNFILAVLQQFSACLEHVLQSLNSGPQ

[2] = target: T1, canine IL-31 (Canis lupus familiaris, UniProt A0A8I3S3D1); assay: Inhibition of canine IL-31 induced pSTAT3 signaling in canine DH-82 and feline FCWF4 cells; format: cell-based
T1 construct: made in house; host or cells: CHO cells (CHROMOS ACE system)
T1 sequence (A0A8I3S3D1 24-159): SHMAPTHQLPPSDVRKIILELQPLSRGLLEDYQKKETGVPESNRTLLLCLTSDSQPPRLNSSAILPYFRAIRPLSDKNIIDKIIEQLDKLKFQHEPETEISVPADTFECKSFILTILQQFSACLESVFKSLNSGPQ
In short: as §1

[3] = tested on: feline 11E12 mutant IL-31; assay: Biacore binding, single test concentration of antibody, feline 11E12 mutant IL-31 surface
Method: (§2) For the indirect ELISA, binding (ELISA OD) to wildtype feline IL-31 and a feline IL-31 15H05 mutant which had mutations in the monoclonal antibody 15H05 epitope region was assessed. To confirm binding, biacore analysis was performed using canine, feline, equine, human, the feline 15H05 mutant, and feline 11E12 mutant IL-31 proteins as surfaces and a single test concentration of antibody. The feline IL-31 11E12 mutant had mutations in the monoclonal antibody 11E12 epitope region.
(§3) For the indirect ELISA method, antibody binding to wildtype and feline IL-31 15H05 mutant proteins was assessed. […] In comparison, the 11E12 antibody bound to the wild-type feline IL-31 and its binding was not impacted by the mutations in the 15H05 epitope region as evidenced by the data in FIG. 4. To confirm binding, biacore analysis was performed using canine, feline, equine, human, feline 15H05 mutant, and feline 11E12 mutant IL-31 proteins as surfaces and a single test concentration of antibody. Similar to ELISA observations, all antibodies tested bound to wildtype feline IL-31. In agreement with the data described above in this section, mouse antibodies 11 E12 and 15H05 both bound to canine and feline IL-31 surfaces. […] From this group of nine fully canine antibodies, only ZIL1 and ZIL9 cross-reacted with equine IL-31. Of note, antibody 15H05 was the only one of all assayed herein that bound to canine, feline, and equine IL-31 indicating some level of epitope conservation across the three species. In contrast, none of the antibodies described herein bound to human IL-31. Additional biacore surfaces were used to verify ELISA observations showing differential binding of antibodies to wildtype feline IL-31 and two proteins with mutations in the 15H05 (15H05 mutant) or 11 E12 (11E12 mutant) epitopes. […] Differing results can be attributed to differences in the two assay methodologies.

[4] = tested on: feline IL-31; assay: Competition binding assessment using Biacore, feline IL-31 surface; conditions: sequential addition of 15H05 and 11E12, Biacore
Method: To further characterize the IL-31 epitopes bound by mAbs 15H05 and 11 E12, blocking experiments were performed using biacore where the surface containing the IL-31 protein was generated followed by sequential addition of antibodies. FIGS. 7A and 7B show the relative binding of each antibody to IL-31 following capture of 11E12 or 15H05. The columns labeled HBS-EP (assay buffer) indicate the maximum signal obtained from each antibody binding to the IL-31 surface alone without competition. […] The sensograms related to FIG. 7A show the disassociation kinetics of both antibodies are very slow on this newly formed biacore surface therefore no additional occupation of binding sites can occur with addition of the same antibody (data not shown).
Binding of additional antibody in the presence of the same antibody is a result of the increased off rate due to the poorer quality of the surface used. Increased off rates can be seen and compared to the KD values from newly formed feline IL-31 surfaces in FIG. 2.
Target sequence in this assay (as listed by the source): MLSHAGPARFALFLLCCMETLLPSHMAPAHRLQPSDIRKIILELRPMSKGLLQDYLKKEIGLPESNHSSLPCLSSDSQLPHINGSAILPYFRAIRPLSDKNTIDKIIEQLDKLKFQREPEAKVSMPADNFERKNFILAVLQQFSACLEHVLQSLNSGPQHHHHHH

[5] = tested on: canine IL-31; assay: Biacore binding, single test concentration of antibody, canine IL-31 surface
Method: as §2, §3

[6] = tested on: feline 15H05 mutant IL-31; assay: Biacore binding, single test concentration of antibody, feline 15H05 mutant IL-31 surface
Method: as §2, §3

[7] = target: feline IL-31; assay: Affinity of anti-IL-31 antibodies by surface plasmon resonance (Biacore), feline IL-31 surface; format: binding; conditions: IL-31 conjugated to the surface (FIG. 2)
In short: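 IL-31 amine-coupled (NHS/EDC) at 5 μg/mL directly onto the SPR chip, quenched with ethanolamine; candidate mAbs flowed over as analyte. KD from 1:1 model fits; values below 1×10^−11 M are under the instrument's lower quantitation limit.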

Sequence of feline 11E12 mutant IL-31 (as listed by the source, stated change not applied): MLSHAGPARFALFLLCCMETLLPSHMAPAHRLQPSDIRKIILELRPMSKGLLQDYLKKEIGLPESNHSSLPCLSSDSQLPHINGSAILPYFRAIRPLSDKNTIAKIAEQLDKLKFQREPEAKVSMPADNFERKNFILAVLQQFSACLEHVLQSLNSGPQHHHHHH
Sequence of canine IL-31 (as listed by the source): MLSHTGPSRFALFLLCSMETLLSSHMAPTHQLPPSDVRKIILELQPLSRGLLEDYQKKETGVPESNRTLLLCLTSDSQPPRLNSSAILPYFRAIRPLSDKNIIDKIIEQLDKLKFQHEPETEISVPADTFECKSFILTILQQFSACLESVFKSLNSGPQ

B1: 15H05: mouse anti IL-31 monoclonal antibody, VH SEQ ID NO: 67, VL SEQ ID NO: 69 (antibody, listed as Mus musculus, V domains shown)
VH: QVQLQQSAAELARPGASVKMSCKTSGYTFTSYTIHWIKQRPGQGLEWIGNINPTSGYTENNQRFKDKTTLTVDRSSNTAYLQLHSLTSEDSAVYFCARWGFKYDGEWSFDVWGAGTTVTVSS
VL: DIQMNQSPSSLSASLGDTITVTCRASQGISIWLSWYQQKPGNIPKVLINKASNLHIGVPPRFSGSGSGTHFTLTITSLQPEDIATYYCLQSQTYPLTFGGGTKLEIN
[1]
  potency (IC50) against feline IL-31 in canine DH82 cells: comparable
[2]; canine IL-31, canine cells
  blocking of canine IL-31 signaling in canine cells: capable of blocking canine IL-31 signaling
[2]; canine IL-31, feline cells
  blocking of canine IL-31 signaling in feline cells: capable of blocking canine IL-31 signaling
[3]
  binding to feline 11E12 mutant IL-31 (Biacore): retained binding
[4]
  competition binding on feline IL-31: no overlap in the epitope recognized
[5]
  binding to canine IL-31 (Biacore): bound
[6]
  binding to feline 15H05 mutant IL-31 (Biacore): did not bind
[7]; listed as Mu-15H05
  affinity (KD) to feline IL-31: sub-nanomolar
[7]; listed as mAb 15H05
  affinity (KD) to feline IL-31: high

From patent US11433139B2, “Peptide vaccines against interleukin-31” (Zoetis Services LLC, priority 2018, dated 2022)
